Test: soluble on expression in E. coli; label from the status in PepcDB or PDB records

Soluble on expression in E. coli, not soluble:
MKFKNILFDFDDTLVDFYDAEKKAFYNLAQKYNHQPTQQDFEHFKKVNQAHWEAFQQNKLTKDEVLSQRFINYFNDYQIHVNGKEADKCFRAELAMAPVKLFDHTLEVIQQLKLNHSLYIVTNGVTETQLRRIAQTQFNEIFQDVFISEKAGFQKPMTEFFDFVFEHIGENNRNQTLIVGDSLTSDILGGKNANISTCWFNIRQKENHTSIQPDYIINDLSEMIRIVE
MAHHHHHHMVSANKSTMPLSQGCAAAAGIPLEYFETRDHINHLISLGMPRVTPHTVPPKERVATLPVPPQQDHTELMLTISSGGSPQKSYFSTTESHLLTCGTLTPKTARKRPEIDSFDMEGAFAALVKRLESRVDEEDNKDMAS
MYDVAIIGAGVIGCSIFRELTKYDLRVVVLEKEKDVSMGTSKANSAIVHAGYDPEEGTLMAKYNVKGNEMFEELCKELSVPFKRNGSLVLAFDKEDMFKVKHLYENGSKLGVKGLKILNRDEVLKMEPNLNDKIEGALYAPTGGIVGPFEYTIALAENGVTNGGKIKLKKEVVSIKKRDVFKIGTEDGETIEAKFVINAAGVYADKIHNLVCKESFKISPRSGEYFVMDKSQGNVVKHTIFQCPSKLGKGVLITPTVHGNLLVGPDARDVEDKEDVGTVFEGLDYVKEASMRSTKEVNFRESIRNFAGLRANPDTGDFIVEENDEVKGFIDVAGMKSPGLSSAPAIAVDVVNILSSAGCSLKK
SGRKIGSIVMNANPFTLGHQYLIEQACEQCDWVHLFVVKAENKDFSYADRMAMIKAGSKHLLNLTIHSGSDYIISRATFPSYFIKDQQVVNQSHTALDLSIFRHSIAPALGITHRFVGSEPICTVTRHYNQAMRRWLEEAHDASAPIQVVEIERSQQASQPISASRVRYLLKQFGFAAIADLVPKTTYSYLCQHYAEH
MEEHPRAWIISVGNELLIGRTINTNAAWLGSRLTLLGFEVERVVTVPDRVEDIAEEVGRALGRARVVITTGGLGPTYDDVTLQGVAMALGRGLKLHPGALEMVRRFYSKRGLGLTEDRVKMAMLPDGAEPLENPVGAAPGAVVEARGSLVASLPGVPSEMEAMFEKALRPLLEEIAPPGAVVECGIAVVGVPESSLAPYIKEASRVSPRVYVKSHPQGSEIGKPLVR
MGSDKIHHHHHHMSTQYWEEEIEIMSREKLQELQLQRLKKTINIAANSPYYKEVFSKNGITGDSIQSLDDIRKIPFTTKSDMRANYPFGLVAGDMKRDGVRIHSSSGTTGNPTVIVHSQHDLDSWANLVARCLYMVGIRKTDVFQNSSGYGMFTGGLGFQYGAERLGCLTVPAAAGNSKRQIKFISDFKTTALHAIPSYAIRLAEVFQEEGIDPRETTLKTLVIGAEPHTDEQRRKIERMLNVKAYNSFGMTEMNGPGVAFECQEQNGMHFWEDCYLVEIIDPETGEPVPEGEIGELVLTTLDREMMPLIRYRTRDLTRILPGKCPCGRTHLRIDRIKGRSDDMFIIKGVNIFPMQVEKILVQFPELGSNYLITLETVNNQDEMIVEVELSDLSTDNYIELEKIRRDIIRQLKDEILVTPKVKLVKKGSLPQSEGKAVRVKDLRDNK
MGSDKIHHHHHHMKSDLELKHDVDQELLWDPALDARNVTATVLNRIVTLEGSVNSCAQKLALQKAVQRVAGSRAVVLDLVVRAPSPLRHTDEDLAAAIVSALQWQEGLPEDAIRVVVEHGCVTLTGEVDYGFQRQMAEVLVSRMRGVVGVANQIEVRIDPVAADVSKHIAEALQRRSRRESGGISVDVHDGVVRLTGVADSLLESVWPAASPGAPRACGGWSTSWSSHESRRLALHAFPSCLNQL
MGSDKIHHHHHHMCMDRAICGNFYYGGKFDYLEVIVSDGKIAGIKKDAGNVPKTNYDGAILPAATDIHVHFRTPGETEKEDFGSGSLSAIYGGTTYVMDMPNNRFPITDYNAFGDKLGSIDSTSFADFSLYSMETGKNAMLLDRRSIGLKVYLGGSTNSTGTEVIEEGDIRKINEMNYPVVFHGESERCLKTHQMEEKNLRDHNLARPIDCEIEAAKYVSGLDIKTKIMAHVSSPDVTGNFLREVTPHHLLLNDEMPLGSFGKVNPPLRDSRTQKRLLDDYISGKFDILSSDHAPHTEDDKREFEFAKSGIIGVETRVPLFLALAQKKIVPLDVLYRTAIENPPSIFGIKKGKIEIGYDADFMVIDFTSMKRINDNRLHSKFPVSPFNGMDAIFPSHVIMRGNVVIDRYEDISDPMGVFIPKPQKE
GNGIPPYAGAGDPARFTFNIVQNAKYWDKEHQYESLSDIRLHKFNAPAPGTFDFDESPVDGKKLELVSSKKIGFDGKFAGIAHDGEQFGLVTQDGSLFFTKDFDKATSFAHLDVPNGSDIHNTVDAAFFEPGGLAGIAQNKTLYGALVTKDVDDYIAWKDFLESSGDVMPLFDSKGRPELRTIRARMQYTMSVASDAKSDTFITVSVPHERAEQIVVSEFSKKDNKLVREGVLDGDYYPVGADMRGDVLYLLSKQHNCLVRVNMKDFTVKDAANLPVEGSDLAIVKDRAYILDGDTVHEVKL
MKQYGFYVDSSRCSGCKTCQVSCKDNKDLDVGPKLRRVYEYGGGSWVKEGESWHHDTFTYYLSIACNHCDEPVCVSGCPTGAMHKRKEDGLVVVDDSVCVGCRYCEMRCPYGAPQFDTQANVMRKCDGCLDRLENNLRPICVDSCPQRALDFGPVDELRAKYGTENQIAPLPSASFTHPNLIIKPHPKARPTGDTEGAIMNIREVRHA
MKYKILLKGKQYFATINLFDGRIAMDVQVQFMAELSQLIDKLSFLSRDQLKIALKGYKPAEVHTIEFIGEHSETNVTAIASALYVTRGAVSKITKRLISRGLIVRYQKPDNQKEVYFKLTAQGQEVFEIHKKFTNYFMQRDEPIFRDSPDAVATTLAFLHQYNAFLDQKLTIKK
MAHHHHHHMSSYDAMSAVSSNGAVMPEINLHPRLMTHRPESDSYTGSARHSSRSTRAVPTNAELAYAGVTAQDGVVQQLSSRSEERGSLAGPREVSAQSNSGHRALRAITACGSIDEPLQLSEPHQGRAIRDTPREQKPQQHQSQPTRSISHGVVARNAAGAGSSREPIRPGRSSCSSTPRIPSKHNDPYAHVTSVVQEYRQSRINALEAQYRVAHTHSNTSVSQGYDTRQSQSASPRSLEARRNASAHSRASARPRDGSWRMSSVSSRTRQNSPLPRAVEEEYLRGGVPRAALDAPHIRYAEALYNMYNSSSSSARRLACMSSMSSNMTTEYVPDVAKRIPDRFKYVPPTEEERRLHREATLRALEEWRRRQCARENAHCKGSEDMAAGGAAVELRNRNPPKNQSGTRSQQPQQAGHEEAAAWALQKGFDNTSDSFSGQARDSFTPSKKCSARKAKKIRSAAEQRDDYPTNEGAGEWERPQSSVGKRSGTLISRRQNGAGLRASSRKGRKSPTESARVEDGMKLNSFREKLLFDIAPPTVSIA

Soluble on expression in E. coli, soluble:
MPKIVILPHQDLCPDGAVLEANSGETILDAALRNGIEIEHACEKSCACTTCHCIVREGFDSLPESSEQEDDMLDKAWGLEPESRLSCQARVTDEDLVVEIPRYTINHAREH
SNAMKRSIEDTPIVLIGAGNLATNLAKALYRKGFRIVQVYSRTEESARELAQKVEAEYTTDLAEVNPYAKLYIVSLKDSAFAELLQGIVEGKREEALMVHTAGSIPMNVWEGHVPHYGVFYPMQTFSKQREVDFKEIPFFIEASSTEDAAFLKAIASTLSNRVYDADSEQRKSLHLAAVFTCNFTNHMYALAAELLKKYNLPFDVMLPLIDETARKVHELEPKTAQTGPAIRYDENVIGNHLRMLADDPAMQRLYELLSRSIHERQ
MVRKALDGQEVVTASAETLRVEALEVRLGENLVLKEVDLAVEPGEIVALLGPSGSGKTTLLRAVAGLLRPTGGRILLGKEVFFDGKKGVFLPPERRNLGLVFQSYALWPQRTVYENVAYGLRLRKVPEKAVRERVLGLLDRLGLTGLERRYPGALSGGQQQRVSLARALAYDPKLLLLDEPLSNLDAKLRDQARVWLRETLKATGKAALFVTHDQGEAMAIADRIALLNEGRMEQVGTPEELYRNPKTLFVADFLGNPNVVEALVVGLEGSTARLELAGFPLRARAMGALVPGRLAKLVLRPEALRPAGVGEVNALEGALAHSLYLGSHYEHWVRVGDALLRFYSPLPLGEARVRLAVDPEAALAYPG
MWRNSEERENRTSGRSQGSYQEIIGRTWIFRGAHRGRVNKKNIVWHELIGLKVRVVNSTHPGYVGIEGYVIDETRNMLVIAGENKVWKVPKDVCIFEFETWDGTKIKISGEKLVGRPEMRLKKRWRK

Source: the DeepSol protein solubility set
